From patent US9278138B2, “Peptide linkers for effective multivalent peptide binding” (E. I. DU PONT DE NEMOURS AND COMPANY, priority 2008, dated 2016)

B1: SDETGPQIPHRRPTWGPEPEPEPEPIPEPPKEAPVVIEKPKPKPKPKPKPPASDETGPQIPHRRPTW (peptide)
chain: SDETGPQIPHRRPTWGPEPEPEPEPIPEPPKEAPVVIEKPKPKPKPKPKPPASDETGPQIPHRRPTW
modifications: synethic cellulose acetate-binding construct

Test: Surface Plasmon Resonance binding to spin-coated cellulose acetate surface (Biacore X100)
Details: for peptide concentration at which binding response (net RU) started rising: net RU versus peptide concentration, FIG. 6
Description: Binding affinity of CA4 peptide and CA4 multimers were assessed by Surface Plasmon Resonance (SPR). The CA surface was prepared by spin-coating 0.75% CA solution in mixed cyclohexanone/methyl ethyl ketone (1/9 weight ratio) solvent at 2000 rpm for 1 minute twice on the Biacore bare gold sensor chip (Biacore Inc., Catalogue numberBR-1004-05; General Electric Corp., Fairfield, Conn.), followed by 80° C. annealing for 15 minutes. The CA resin used was CA-398-10 from Eastman Chemical Company (Kingsport, Tenn.), and the solution prepared was filtered with 0.2 μm PTFE membrane before use. The thickness of the spin-coated CA thin film was measured by Atomic Force Microscope (AFM) to be 26-30 nm.
Binding of each peptide to the CA surface was tested at various concentration ranges in Tris Buffered Saline (TBS, 25 mM Tris, 150 mM NaCl, pH 7.5), using Biacore X100 system. Each peptide solution sample was injected for 2 minutes at flow rate of 30 μL/minute followed by 10 minutes buffer wash. Surface regeneration and stabilization procedure was performed after each peptide solution injection as such: 90 seconds of 1% SLES (sodium laureth sulfate) solution injection and 90 seconds of 2 M NaCl solution injection at flow rate of 10 μL/minute, and 25 minutes stabilization in TBS. For the samples of each peptide at different concentrations, a new sensor chip flow cell was used.
Because a monolithic CA surface made from spin-coating on the whole sensor chip was used as ligand for peptides, no ligand-free reference cell was possible to have in these tests in order to take bulk response out as in conventional SPR protein assay using Biacore instruments. Bulk response refers to the SPR response to the refractive index difference between the sample solution and the running buffer, but not caused by sample binding to the surface. Bulk response completely disappears once sample injection is finished and buffer wash starts. So the response units (RU) remained right after injection was caused by binding and proportional to the mass of peptide bound to the surface, and was named as “net RU” in binding data. […] Typically, association and dissociation rate constant (ka and kd) can be obtained from binding kinetics curve fitting, and dissociation constant (KD). can be determined from the ratio of dissociation rate constant to association rate constant. The use of short linkers (3-6 amino acid residues) in CA4 dimer 1, CA4 dimer 2 and CA4 trimer gave 5 fold improvement on binding affinity compared to CA4 monomer. The use of long rigid linker (TonB linker) in CA4 dimer 4 gave 50 fold improvement on binding affinity compared to CA4 monomer. […] As control, the TonB linker peptide was tested in the same way.

[1] = TBS pH 7.5, from binding kinetics curve fitting

Molecule | binding affinity to CA surface (in words) (SPR) | KD(M) from kinetics (TBS pH 7.5, ratio of kd to ka) | peptide concentration at which binding response (net RU) started rising [µM] | ka [1] [M⁻¹ s⁻¹] | kd [1] [s⁻¹] | Kd (TBS pH 7.5, ratio of kd to ka, read-out: KD(M) from kinetics) [M] | fold improvement on binding affinity compared to CA4 monomer (based on KD of Table 10) [fold]
GPEPEPEPEPIPEPPKEAPWIEKPKPKPKPKPKPA [TonB linker, reference compound] | no binding affinity | undetectable | > 50 | – | – | – | –
B1 | – | – | 5 | 441.5 | 0.00089 | 2e-06 | 50
